Columns and labels:
[1] = target: T1, recombinant human FcγRI from R&D Systems (Cat#1257-FC-050) (human, UniProt P12314 16-292); assay: ELISA, recombinant human FcγRI
T1 construct: extracellular domain; Bought reagent; also called CD64

FcγRI = target: T2, FcγRI; assay: surface plasmon resonance; FcγRI immobilized (1000 µRIU), CRP injected at 42, 84, 169 and 338 nM
T2 construct: also called FcgRI; CD64
Procedure: FcγRI (1000 μRIU) were immobilized CRP was injected @ 42 nM, 84 nM, 169 nM and 338 nM. Data are recorded as resonance units over time after injection.

T2 sequence (P12314 16-292): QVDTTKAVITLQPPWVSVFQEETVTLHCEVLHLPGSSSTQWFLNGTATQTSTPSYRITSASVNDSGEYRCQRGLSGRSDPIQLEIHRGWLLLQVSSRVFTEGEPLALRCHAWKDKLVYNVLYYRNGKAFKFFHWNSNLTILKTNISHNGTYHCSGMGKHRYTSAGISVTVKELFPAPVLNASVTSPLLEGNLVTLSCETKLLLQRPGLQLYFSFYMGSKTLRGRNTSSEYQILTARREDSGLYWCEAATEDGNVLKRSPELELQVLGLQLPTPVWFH
T1 sequence (P12314 16-292): as above

- binding result [1]: binds
- Kd (FcγRI): 183 nM
B1: C-reactive protein (CRP) (ligand)
chain: QTDMSRKAFVFPKESDTSYVSLKAPLTKPLKAFTVCLHFYTELSSTRGYSIFSYATKRQDNEILIFWSKDIGYSFTVGGSEILFEVPEVTVAPVHICTSWESASGIVEFWVDGKPRVRKSLKKGYTVGAEASIILGQEQDSFGGNFEGSQSLVGDIGNVNMWDFVLSPDEINTIYLGGPFSPNVLNWRALKYEVQGEVFTKPQLWP
notes: also called human CRP
